{"source": "the DeepSol protein solubility set", "data": [{"experiment": "soluble on expression in E. coli; label from the status in PepcDB or PDB records", "values": [{"sequence": "MHHHHHHMTSVMSHEFQLATAETWPNPWPMYRALRDHDPVHHVVPPQRPEYDYYVLSRHADVWSAARDHQTFSSAQGLTVNYGELEMIGLHDTPPMVMQDPPVHTEFRKLVSRGFTPRQVETVEPTVRKFVVERLEKLRANGGGDIVTELFKPLPSMVVAHYLGVPEEDWTQFDGWTQAIVAANAVDGATTGALDAVGSMMAYFTGLIERRRTEPADDAISHLVAAGVGADGDTAGTLSILAFTFTMVTGGNDTVTGMLGGSMPLLHRRPDQRRLLLDDPEGIPDAVEELLRLTSPVQGLARTTTRDVTIGDTTIPAGRRVLLLYGSANRDERQYGPDAAELDVTRCPRNILTFSHGAHHCLGAAAARMQCRVALTELLARCPDFEVAESRIVWSGGSYVRRPLSVPFRVTSSR", "soluble on expression in E. coli": "soluble"}, {"sequence": "MHRRRSGPTSQPLARGERGLPANRSFASLIAWLTSVRLLCRSPPFCCFYSLSTYTTVMYTDGQYDYDVAVVGGGPAGLTSALYTSRLGMDTIVINRGGGRAAMMTDTHNVIGVTEDVSGNEFLETAREQVQDYGGTYERGFVESVDPLADEEDGFTVTTSDGELAVKRVVLATGFADERPDPPLPRTGKGLHWCLHCDAFMFVGEPVFVMGTGEAAAHVAMIMLNYTDDVDILTRGETPEWSDETQTMLDNHPVEIVETELSGKQTDDDGWLSAYEFEDGSVREYKGGFPMLGSDYHAELADELGLDRNDDGTVAVDDHGETSVSGVYAVGDLTPGHNQIPIAMGEGADAGIAIHKDLRKYPRSVDDIESEGAVEDVEVPAVSEELFATALTHEGHAAGPRSEEAPEVRADDDLEHHHHHH", "soluble on expression in E. coli": "not soluble"}, {"sequence": "MVEINNQRKAFLDMLAWSEGTDNGRQKTRNHGYDVIVGGELFTDYSDHPRKLVTLNPKLKSTGAGRYQLLSRWWDAYRKQLGLKDFSPKSQDAVALQQIKERGALPMIDRGDIRQAIDRCSNIWASLPGAGYGQFEHKADSLIAKFKEAGGTVREIDV", "soluble on expression in E. coli": "soluble"}, {"sequence": "MQGLESLTYYTENYPPLNFAKEDGKPAGIAVDLLLEAAAAVNVTLNLDQIFVQPWPRSYRSALLKQDGVLFSTTRTTHRENLFNWVGPIADIKVVVLARKSSQIKVNDPIELGNYRIGVIRDDIGEQQLLQLEHHHHHH", "soluble on expression in E. coli": "not soluble"}, {"sequence": "MIGSYALSILDEAEVLVDLLTGGAPKVNKIFLITSSRRKRPDYYGELESCLKEMDLNLEIITVDDVSNFFEVYLILEKICELEGTPKWVNVGSGHGIMLSALAVHAFIKDALLVAFDKEEKKVIVTDIKKLKRIKIYQKRYFELISELGEGEKTITELSKIFNLSRSAMSRRLKHMETLNIVVRKGTGRSNIPYVFKLTELGRKLL", "soluble on expression in E. coli": "soluble"}, {"sequence": "MSLTNQVTYLFFHGMKQISEHLFTTEEQAIIARSKAEGSYMKAPNGQATNLNKKQWAQVRTRAFREWFGDWENNPDEASKVRDANGEPLVVYHGTPISRDQAADRSKFRIADDWEIQTINAPFHTFRGGAYNGLIFTSLTEEKARSIGETRSMSIPDSEDGREQWTTDSYVYDLFVNARQPFDVKNPNAVKDILDALEGQLTAYDFYLGMEVPVSRKEAEKILEGGNSWRVVETPSMQEIIRSRGYDAIHALDEGVQYMAVFAPNQLKASGKYLYSERNTGVFSPGNNDIRFREVHHGVPASFTGYRSMKTETVRNDNIPAVLAALREKLEDTEQEWQDRILDYIAENYPTQTTVSAQTRSPEGLKEREAMKKDKTLRKMKEEAVAALNAADEKVMEAFKKENGDILFREVKENDGGKSLVGLHNISEEKLLKALKLGGLANPSAAVIDIARQSHEGYGEISLILPSSMIDKRTGRNAGTFSGDAWTPVYPQIERQFSGDGSGRVRDAISRLPQEMQPNVRSAWNSYMDGRDEGSAFAYQFLYERGEAPEFRKIEPLFGEHLRNRISAIDALDDYDERNTALLEVYIEENFGGDQTKFKDYIETRKRVLQDKEGHHHHHH", "soluble on expression in E. coli": "not soluble"}, {"sequence": "GMLTDMQRDSASSSTVTTEQIVYGALPLTTINEPECRAIAITSINGSATLSGVSGPMGDQTDADLLIQLRGWADAIVVGAETARKENYGPVVLPHGIKNQRQKLGRCGLPKLTLLSKSLYFDFSSELFSPDLPSELSPLVITQQPANNSEQWDQRLQKLIDVGVEVIVAPTSTNPLKIAFDALHARRLKKISIEGGPSVYRQALSLGIVDRLHLTIAPNIICPVESPLFGKISDDSFTTRLVLEMLSSSPNGLIFSRYKVIRDTLGNPTQ", "soluble on expression in E. coli": "soluble"}, {"sequence": "MGSDKIHHHHHHMDEKGLADCHTPTNGGNQKIKFVNEPNLYRIIFRSNKPEAKQFQDWVFNEVLPTIRKTGKYEAPKPVEKRNYLNNSDMNNIKRLIWTCADHFGHKGSFNQAIWACLRDVTGVPSPAKFEVEHLPVLAEEFKRILNIVQPFLDMQYECQTLLIKRVIRGRADHTVLQALLDNMRNAANQSDNQFKEALQKQLPAMFNQECLNLINRRPNHYDHYEYNERLI", "soluble on expression in E. coli": "not soluble"}, {"sequence": "MRFVFDIDGTLCFDGRLIDQTIIDTLLQLQHDGHELIFASARPIRDLLPVLPSVFHQHTLIGANGAMISQQSKISVIKPIHTDTYHHILKIIQKYELDYIIDDDWNYAAQLDAENAIFERLDPHKLASCIDVANIDTPIKIILLNIDPAQITTILDELNKYHQELEMIHHSNEYNIDITAQNINKYTALQYIFDADVKYIAFGNDHNDIFMLQHASSGYIIGPSEAYTHAILKLDKIKHINNNTQAICKVLKSYK", "soluble on expression in E. coli": "not soluble"}, {"sequence": "MTDTARKIVAQPLSAAAFAPFGQVIDTAQVASRPMNDGRARRFHDLAEIEVIGNGARVVVGLVEAEPYAVPLWLNLVERHPLGAQAFVPLNAAPFLVVVCPDESGKPGAPQAFITAPHQGVCYARNTWHSVLTPFGAAQDFVVIDRGGPGVNLEEHLFDEPWIVHLSTSGLEHHHHHH", "soluble on expression in E. coli": "soluble"}, {"sequence": "MSLKITGNTILITGGGSGIGRALAEAFHQAGNRVIISGRRQAVLDEVTAANPGMASMVMDAGDAEGIRAFAEALVKAHPTLNAVINNAGIMRPEEIAAAPDYLDTAEETIATNLLAPIRLTAALLPHFLKQPAATVLTVSSGLAFVPMVLTPTYSATKSAIHAYSVALREQLKETSVEVIEIVPPYVQTTLMGEGQANDERAMPLEAFISEVMDILKNRPDEKEVVVERCKPLRFAAQNGNFDQVFAMINHMHEGHHHHHH", "soluble on expression in E. coli": "soluble"}, {"sequence": "MLNTILVALDGSEIAERVIQTLGYLVLSPNTNVILCHVFPAPESEIELPADRPQPDLPNFSYFNIDKQMQSYQERLSVKSELELVMGDPADEIIRLANIYKADLVVIGSRGLTGMNRIVQGSVSTQVMEAANCSVLVVKPARN", "soluble on expression in E. coli": "not soluble"}, {"sequence": "MYQVIKMYGDWEPWWFIDGWQDDIIDEQQFSDWQEALDYFNQEWQRMKAIFPSYHSQKNLLATFWEKEDKRWCEDCDEDLQQFHSLLLLKNKDIVPSNNYIPEFEQRNDSPQVAYLCKLNL", "soluble on expression in E. coli": "not soluble"}, {"sequence": "MEVHKAITAHSRKQNESVKACLQLDAQREAAIEAAVSLASNGKEFSVDVINVVTKQINDLAKNGVTLQRKYVTEEMVMEYVSRLKKKEGR", "soluble on expression in E. coli": "not soluble"}, {"sequence": "MAHHHHHHMKEARKGPCVPWQQNYARWQHTTPVNHVTVMIALDTMNKDRGAPCLVPGSHRWREGGLLPSVPYDPAKDEAQQLNTIWEITNEEESEMLMDTPPATVDMKRGEALLIHPLTLFATHGNRSLDAVRCCFIHYMGGKTYATQNGPLLPHTTQFQAGAMIQGPFYPVVFDPAMTEELAMLPGESAAQNDITEEV", "soluble on expression in E. coli": "not soluble"}, {"sequence": "MGSDKIHHHHHHMETAAELKTRLIAQAKAEGFVSVRLCRPWDVPEVPERLRAFLEAGYHGQMKWMAERINWRENPAALWPEARSVIMLAESYTPDEDPMAVVGLPDRAAISVYARGKDYHDLVKKRLKRLARWLIEEAPDEAQVKVFVDTAPVPEKALGQASGLGWQGKHTNLVSRDWGNWAFLGSIFTTLDLPVDAPEPDRCGSCRACLTACPTDAFPAPYQLDARRCISYLTIEHKGPIEEELRTKLGNRIYGCDDCLAACPWNKFAVEASDMRYAAREGTIAPPLAELSQLDDAAFRARFSGSPIKRIGRDRFVRNVLYAIGNSGDAGLHVFAQALCDDPDPTVAEAARWAAARLP", "soluble on expression in E. coli": "not soluble"}, {"sequence": "MITLIFPGFNNVHVSGMDIEEKIRKIEEEIQKTPYNKATAHHIGKLKAKISRLKEEALQRKTSSGKGRGFHIKKSGDSTVVLIGFPSVGKSTLLNELTSAESKVGDYQFTTLEIVPGVMEYRGAQIQIFDIPGIITGASRGRGRGREILSVARSADLIVIVLDVFNTDHMDIILRELRDVGIRPNETPPDVIVKRRKLGGVKLSATVELTHLDEKIIRSVLNEYGIHNADVLIRDDITVDQFIDVMEANRAYIPAITVINKIDLVDESYLEGLREKFPEALFISADRDINIDELREEIFNRLGLIRIYLKPQGKKADYDEPLIIREGSTVGDVCQKLHRDFVRKFRHARVWGSSVKFDGQKVGLEHVLNDEDVLRIIIKK", "soluble on expression in E. coli": "not soluble"}]}]}
